Source: paper PMC6317593, “Determining the amphipol distribution within membrane-protein fibre samples using small-angle neutron scattering” (Acta Crystallographica. Section D, Structural Biology, 2018)

Target: the molecule itself
Assay: SEC; Superose 12 column, 20 mM sodium phosphate pH 7.9, 100 mM NaCl, 0.5 ml/min; OmpF in amphipol A8-35 at 1:10 (w:w), detergent-free buffer; oligomer: trimer

B1: Outer membrane protein F (OmpF) (natural protein, E. coli, UniProt P02931 23-362, looked up)
chain: AEIYNKDGNKVDLYGKAVGLHYFSKGNGENSYGGNGDMTYARLGFKGETQINSDLTGYGQWEYNFQGNNSEGADAQTGNKTRLAFAGLKYADVGSFDYGRNYGVVYDALGYTDMLPEFGGDTAYSDDFFVGRVGGVATYRNSNFFGLVDGLNFAVQYLGKNERDTARRSNGDGVGGSISYEYEGFGIVGAYGAADRTNLQEAQPLGNGKKAEQWATGLKYDANNIYLAANYGETRNATPITNKFTNTSGFANKTQDVLLVAQYQFDFGLRPSIAYTKSKAKDVEGIGDVDLVNYFEVGATYYFNKNMSTYVDYIINQIDSDNKLGVGSDDTVAVGIVYQF
modifications: deuterated (cells grown in 85% D2O minimal medium)
notes: Outer membrane protein F (OmpF), the major porin of the E. coli outer membrane, produced from E. coli BE3000 cells; trimeric, each monomer a 16-stranded beta-barrel; Native protein purified from the outer membrane of strain BE3000; Held in amphipol A8-35 (not a protein) in all experiments; also called dOmpF; deuterated OmpF; source: E. coli BE3000 cells grown in 85% D2O minimal medium, purified …
  stoichiometry N: 3
